Columns and labels:
Peptide-132 [1] = target: T1, Peptide-132; assay: BLI (Octet), biotinylated peptide on sensor, Fab in solution
T1 peptide: YCEGHLPEYRNKCL

Peptide-120 [2] = target: T2, Peptide-120; assay: as above
T2 peptide: YCEGHLPEYIEKCL

Peptide-121 [3] = target: T3, Peptide-121; assay: as above
T3 peptide: YCEGHAPEYIAKCL

Peptide-135 [4] = target: T4, Peptide-135; assay: as above
T4 peptide: YCEGHLPEYIWKCL

Peptide-87 [5] = target: T5, Peptide-87; assay: as above
T5 peptide: YCAGHAWQYINKCL

Peptide-127 [6] = target: T6, Peptide-127; assay: as above
T6 peptide: YCEGHLPEYLAKCL

Peptide-126 [7] = target: T7, Peptide-126; assay: as above
T7 peptide: YCEGHLPEYREKCL

Peptide-134 [8] = target: T8, Peptide-134; assay: as above
T8 peptide: YCEGHLPEYIQKCL

Peptide-125 = target: T9, Peptide-125; assay: binding ELISA, biotinylated peptide on neutravidin plate, Fab titrated
T9 peptide: YCEGHLPEYLGKCL

Peptide-132 [9] = target: T1, Peptide-132; assay: as above
Peptide-120 [10] = target: T2, Peptide-120; assay: as above
Peptide-136 = target: T10, Peptide-136; assay: as above
T10 peptide: YCEGHAPEYIGKCL

Peptide-133 = target: T11, Peptide-133; assay: as above
T11 peptide: YCEGHLPEYLEKCV

Peptide-123 = target: T12, Peptide-123; assay: as above
T12 peptide: YCEGHAPEYIWKCL

Peptide-121 [11] = target: T3, Peptide-121; assay: as above
Peptide-135 [12] = target: T4, Peptide-135; assay: as above
Peptide-87 [13] = target: T5, Peptide-87; assay: as above
Peptide-128 = target: T13, Peptide-128; assay: as above
T13 peptide: YCEGHSQEYLWKCL

Peptide-124 = target: T14, Peptide-124; assay: as above
T14 peptide: YCEGHSQENIWKCL

Peptide-127 [14] = target: T6, Peptide-127; assay: as above
Peptide-119 = target: T15, Peptide-119; assay: as above
T15 peptide: YCEGHEGIYFWKCL

Peptide-117 = target: T16, Peptide-117; assay: as above
T16 peptide: YCEGHSPEYILKCL

Peptide-118 = target: T17, Peptide-118; assay: as above
T17 peptide: YCEGHRPEYILKCL

Peptide-126 [15] = target: T7, Peptide-126; assay: as above
Peptide-134 [16] = target: T8, Peptide-134; assay: as above
Peptide-122 = target: T18, Peptide-122; assay: as above
T18 peptide: YCEGHAPEYIRKCL

Peptide-129 = target: T19, Peptide-129; assay: as above
T19 peptide: YCEGHSSEYIQKCL

Peptide-153 = target: T20, Peptide-153; assay: as above
T20 peptide: TCAAGATYLWPTCL

Peptide-144 = target: T21, Peptide-144; assay: as above
T21 peptide: LCAAGATYPWPLCL

Peptide-152 = target: T22, Peptide-152; assay: as above
T22 peptide: TCSAGATWAWPLCF

Peptide-154 = target: T23, Peptide-154; assay: as above
T23 peptide: TCAAGAHYPWPACL

Peptide-150 = target: T24, Peptide-150; assay: as above
T24 peptide: TCSAGAHYPWPICL

Peptide-142 = target: T25, Peptide-142; assay: as above
T25 peptide: TCAAGATWSWPACF

Peptide-139 = target: T26, Peptide-139; assay: as above
T26 peptide: TCSAGASYPWPLCL

Peptide-148 = target: T27, Peptide-148; assay: as above
T27 peptide: SCSAGAHYPWPQCF

Peptide-151 = target: T28, Peptide-151; assay: as above
T28 peptide: SCSAGAAYYWPWCL

Peptide-147 = target: T29, Peptide-147; assay: as above
T29 peptide: LCAAGATYPWPTCL

Peptide-145 = target: T30, Peptide-145; assay: as above
T30 peptide: TCSAGAAYPWPLCL

Peptide-92 = target: T31, Peptide-92; assay: as above
T31 peptide: SCAAGASYAWPYCL

Peptide-146 = target: T32, Peptide-146; assay: as above
T32 peptide: TCSAGAAYSWPACF

B1: anti-CD28 Fab (Fab, V domains shown)
VH: QVQLVQSGAEVKKPGASVKVSCKASGYTFTSYYIHWVRQAPGQGLEWIGSIYPGNVNTNYNEKFKDRATLTVDTSISTAYMELSRLRSDDTAVYFCTRSHYGLDWNFDVWGQGTTVTVSS
VL: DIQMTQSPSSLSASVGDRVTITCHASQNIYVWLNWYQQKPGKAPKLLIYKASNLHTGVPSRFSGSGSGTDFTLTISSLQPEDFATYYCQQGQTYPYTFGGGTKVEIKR
Peptide-132 [1]
  Off rate t½: 48 s
Peptide-120 [2]
  Off rate t½: 30 s
Peptide-121 [3]
  Off rate t½: 24 s
Peptide-135 [4]
  Off rate t½: 54 s
Peptide-87 [5]
  Off rate t½: 42 s
Peptide-127 [6]
  Off rate t½: 60 s
Peptide-126 [7]
  Off rate t½: 36 s
Peptide-134 [8]
  Off rate t½: 54 s
Peptide-125
  EC50: 12.1 nM
Peptide-132 [9]
  EC50: 3.2 nM
Peptide-120 [10]
  EC50: 3.1 nM
Peptide-136
  EC50: 44.9 nM
Peptide-133
  EC50: 32.5 nM
Peptide-123
  EC50: 8.1 nM
Peptide-121 [11]
  EC50: 7.1 nM
Peptide-135 [12]
  EC50: 2.1 nM
Peptide-87 [13]
  EC50: 30.6 nM
Peptide-128
  EC50: 59.4 nM
Peptide-124
  EC50: 28.1 nM
Peptide-127 [14]
  EC50: 1.7 nM
Peptide-119
  EC50: 128 nM
Peptide-117
  EC50: 11 nM
Peptide-118
  EC50: 65.8 nM
Peptide-126 [15]
  EC50: 3.4 nM
Peptide-134 [16]
  EC50: 1.3 nM
Peptide-122
  EC50: 7.8 nM
Peptide-129
  EC50: 30.5 nM
Peptide-153
  EC50: 20.5 nM
Peptide-144
  EC50: 5.6 nM
Peptide-152
  EC50: 15.6 nM
Peptide-154
  EC50: 4.2 nM
Peptide-150
  EC50: 10.6 nM
Peptide-142
  EC50: 4.5 nM
Peptide-139
  EC50: 5.3 nM
Peptide-148
  EC50: 19 nM
Peptide-151
  EC50: 112 nM
Peptide-147
  EC50: 25.8 nM
Peptide-145
  EC50: 4.4 nM
Peptide-92
  EC50: 18.9 nM
Peptide-146
  EC50: 24.3 nM
